Test results from patent US20190002539A1 (NATIONAL CENTER FOR AIDS STD CONTROL AND PREVENTION CHINESE …, published 2019).

What was measured:
[1] = molecular target: HIV-1 Env of pseudovirus Ce0217 (HIV-1); test: cell-based or functional assay
[2] = molecular target: HIV-1 Env of pseudovirus 398-F1 (HIV-1); test: cell-based or functional assay
[3] = molecular target: HIV-1 Env of pseudovirus CNE55 (HIV-1); test: cell-based or functional assay
[4] = molecular target: HIV-1 Env of pseudovirus Ce1176 (HIV-1); test: cell-based or functional assay
[5] = molecular target: HIV-1 Env of pseudovirus 25710 (HIV-1); test: cell-based or functional assay
[6] = molecular target: HIV-1 Env of pseudovirus BJOX2000 (HIV-1); test: cell-based or functional assay
[7] = molecular target: HIV-1 Env of pseudovirus 246 (HIV-1); test: cell-based or functional assay
[8] = molecular target: HIV-1 Env of pseudovirus X2278 (HIV-1); test: cell-based or functional assay
[9] = molecular target: HIV-1 Env of pseudovirus TRO.11 (HIV-1); test: cell-based or functional assay
[10] = molecular target: HIV-1 Env of pseudovirus X1632 (HIV-1); test: cell-based or functional assay
[11] = molecular target: HIV-1 Env of pseudovirus CH119.10 (HIV-1); test: cell-based or functional assay
[12] = molecular target: HIV-1 Env of pseudovirus CNE8 (HIV-1); test: cell-based or functional assay
wild-type (WT) YU2 gp120 = molecular target: T1, wild-type (WT) YU2 gp120 (HIV-1, UniProt P35961 32-498); test: ELISA, antigen coated at 2 µg/ml
T1 construct: domain: gp120

[13] = molecular target: HIV-1 Env of pseudovirus BJMSM2498 (HIV-1); test: cell-based or functional assay
[14] = molecular target: HIV-1 Env of pseudovirus CH117 (HIV-1); test: cell-based or functional assay
[15] = molecular target: HIV-1 Env of pseudovirus BJMSM2316 (HIV-1); test: cell-based or functional assay
[16] = molecular target: HIV-1 Env of pseudovirus CAP45 (HIV-1); test: cell-based or functional assay
[17] = molecular target: HIV-1 Env of pseudovirus PV0.4 (HIV-1); test: cell-based or functional assay
[18] = molecular target: HIV-1 Env of pseudovirus BJMSM2249 (HIV-1); test: cell-based or functional assay
[19] = molecular target: HIV-1 Env of pseudovirus SF162 (HIV-1, UniProt P19550 32-847); test: cell-based or functional assay
[20] = molecular target: HIV-1 Env of pseudovirus MW965 (HIV-1); test: cell-based or functional assay
[21] = molecular target: HIV-1 Env of pseudovirus Q842 (HIV-1); test: cell-based or functional assay
[22] = molecular target: HIV-1 Env of pseudovirus CAAN5342 (HIV-1); test: cell-based or functional assay
[23] = molecular target: HIV-1 Env of pseudovirus CH181 (HIV-1); test: cell-based or functional assay
[24] = molecular target: HIV-1 Env of pseudovirus RHPA4259 (HIV-1); test: cell-based or functional assay
[25] = molecular target: HIV-1 Env of pseudovirus Q461 (HIV-1); test: cell-based or functional assay
[26] = molecular target: HIV-1 Env of pseudovirus ZM249M (HIV-1); test: cell-based or functional assay
[27] = molecular target: HIV-1 Env of pseudovirus Du422 (HIV-1); test: cell-based or functional assay
[28] = molecular target: HIV-1 Env of pseudovirus SC422661 (HIV-1); test: cell-based or functional assay
[29] = molecular target: HIV-1 Env of pseudovirus Q769 (HIV-1); test: cell-based or functional assay
[30] = molecular target: HIV-1 Env of pseudovirus QH0692 (HIV-1); test: cell-based or functional assay
[31] = molecular target: HIV-1 Env of pseudovirus AC10 (HIV-1); test: cell-based or functional assay
[32] = molecular target: HIV-1 Env of pseudovirus Q259 (HIV-1); test: cell-based or functional assay
[33] = molecular target: HIV-1 Env of pseudovirus REJO4541 (HIV-1); test: cell-based or functional assay
[34] = molecular target: HIV-1 Env of pseudovirus CH120 (HIV-1); test: cell-based or functional assay
[35] = molecular target: HIV-1 Env of pseudovirus ZM109F (HIV-1); test: cell-based or functional assay
[36] = molecular target: HIV-1 Env of pseudovirus TRJO4551 (HIV-1); test: cell-based or functional assay
[37] = molecular target: HIV-1 Env of pseudovirus CH110 (HIV-1); test: cell-based or functional assay

B1: monoclonal antibody DRVIA7H+VRC01L (antibody, V domains shown)
VH: QVQLVESGTQFRRPGASVRLSCEASGYTFISSFIHWIRQGPGQGLEWMGWMNPRHGAVNYPRRFQGKVTMTRDTSIDTAYMELRDLRSDDTAMYFCVTSRTKDYDWDFVWGQGTLVVVSS
VL: EIVLTQSPGTLSLSPGETAIISCRTSQYGSLAWYQQRPGQAPRLVIYSGSTRAAGIPDRFSGSRWGPDYNLTISNLESGDFGVYYCQQYEFFGQGTKVQVDI
Q: With B1 as the binder, how does the “IC50 in µg/ml, TZM-bl/pseudovirus neutralizing assay” value (“IC50 in µg/ml” below) [1] read?
A: The value was 0.65 µg/mL.

Q: What about the “IC50 in µg/ml” value [2] of the same binder?
A: Its value is 0.8 µg/mL.

Q: And the “IC50 in µg/ml” value [3]?
A: Its value is 1.23 µg/mL.

Q: What about the “IC50 in µg/ml” value [4] of the same binder?
A: The value was 4.08 µg/mL.

Q: What about the “IC50 in µg/ml” value [5] of the same binder?
A: Its value is 2.5 µg/mL.

Q: What about the “IC50 in µg/ml” value [6] of the same binder?
A: Its value is 15.9 µg/mL.

Q: And the “IC50 in µg/ml” value [7]?
A: The value was 1.29 µg/mL.

Q: And the “IC50 in µg/ml” value [8]?
A: The value was 0.34 µg/mL.

Q: And the “IC50 in µg/ml” value [9]?
A: Its value is 1.18 µg/mL.

Q: What about the “IC50 in µg/ml” value [10] of the same binder?
A: The value was 0.61 µg/mL.

Q: And the “IC50 in µg/ml” value [11]?
A: The value was 1.85 µg/mL.

Q: And the “IC50 in µg/ml” value [12]?
A: The value was 1.48 µg/mL.

Q: Does B1 bind (wild-type (WT) YU2 gp120)?
A: Result: binds

Q: And the “IC50 in µg/ml” value [13]?
A: Its value is 4.32 µg/mL.

Q: What about the “IC50 in µg/ml” value [14] of the same binder?
A: The value was 0.59 µg/mL.

Q: And the “IC50 in µg/ml” value [15]?
A: Its value is 0.47 µg/mL.

Q: What about the “IC50 in µg/ml” value [16] of the same binder?
A: Its value is 0.84 µg/mL.

Q: What about the “IC50 in µg/ml” value [17] of the same binder?
A: The value was 1.18 µg/mL.

Q: And the “IC50 in µg/ml” value [18]?
A: Its value is 2.25 µg/mL.

Q: What about the “IC50 in µg/ml” value [19] of the same binder?
A: Its value is 0.3 µg/mL.

Q: And the “IC50 in µg/ml” value [20]?
A: The value was 0.2 µg/mL.

Q: What about the “IC50 in µg/ml” value [21] of the same binder?
A: Its value is 0.18 µg/mL.

Q: And the “IC50 in µg/ml” value [22]?
A: Its value is 3.4 µg/mL.

Q: What about the “IC50 in µg/ml” value [23] of the same binder?
A: The value was 0.98 µg/mL.

Q: And the “IC50 in µg/ml” value [24]?
A: The value was 0.34 µg/mL.

Q: And the “IC50 in µg/ml” value [25]?
A: The value was 1.4 µg/mL.

Q: What about the “IC50 in µg/ml” value [26] of the same binder?
A: Its value is 0.74 µg/mL.

Q: And the “IC50 in µg/ml” value [27]?
A: The value was > 20 µg/mL.

Q: What about the “IC50 in µg/ml” value [28] of the same binder?
A: The value was 0.58 µg/mL.

Q: And the “IC50 in µg/ml” value [29]?
A: The value was 0.3 µg/mL.

Q: And the “IC50 in µg/ml” value [30]?
A: Its value is 2.03 µg/mL.

Q: What about the “IC50 in µg/ml” value [31] of the same binder?
A: The value was 15.5 µg/mL.

Q: What about the “IC50 in µg/ml” value [32] of the same binder?
A: Its value is > 20 µg/mL.

Q: And the “IC50 in µg/ml” value [33]?
A: The value was 0.75 µg/mL.

Q: And the “IC50 in µg/ml” value [34]?
A: Its value is 6.53 µg/mL.

Q: What about the “IC50 in µg/ml” value [35] of the same binder?
A: The value was 0.59 µg/mL.

Q: What about the “IC50 in µg/ml” value [36] of the same binder?
A: The value was 1.44 µg/mL.

Q: And the “IC50 in µg/ml” value [37]?
A: Its value is 0.15 µg/mL.
